Results published in patent publication US11278600B2, “Human alpha-galactosidase variants” (Codexis, Inc., priority 2014, dated 2022).

How the values were obtained:
Format in all cases: biochemical
[1] = HTP-analysis of supernatants pretreated with base (MUGal hydrolysis); settings: challenge at pH 7.6; activity of the variant/activity of Rd2BB (SEQ ID NO: 10); yeast supernatant
Method in brief: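 Fluorescence of released 4-MU (Ex 355 nm, Em 448 nm) after carbonate quench reports MUGal hydrolysis by GLA variants secreted from INVSc1 yeast. Before the acidic (pH 4.3-4.8) 30-180 min reaction at 37° C, supernatants had been pre-incubated at pH 7.0-9.7 for 1-18 h at 37° C.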

[2] = HTP-analysis of yeast culture supernatants, no challenge (MUGal hydrolysis); settings: activity of the variant/activity of Rd2BB (SEQ ID NO: 10), yeast supernatant
Method in brief: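 Activity read as 4-methylumbelliferyl α-D-galactopyranoside hydrolysis: fluorescence (355/448 nm) after sodium carbonate stop, following 30-180 min at 37° C with 2 mM MUGal stock at pH 4.6–4.8. Enzyme source is unchallenged culture supernatant of INVSc1 yeast expressing GLA variants, grown 66-84 h at 30° C.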

[3] = HTP-analysis of supernatants pretreated with acid (MUGal hydrolysis); settings: challenge at pH 4.2; activity of the variant/activity of Rd2BB (SEQ ID NO: 10); yeast supernatant
Method in brief: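 Yeast INVSc1 supernatant, GLA variants; acid challenge: McIlvaine pH 3.3-4.3, 37° C., 1-3 h. Assay: MUGal in McIlvaine pH 4.8 plus citrate pH 4.3, 37° C., 30-180 min, Na2CO3 stop, Ex 355/Em 448 nm.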

B1: 201 (protein)
chain: LDNGLARTPTMGWLHWERFMCNLDCQEEPDSCISEKLFMEMAELMVSEGWKDAGYEYLCIDDCWMAPQRDSEGRLQADPQRFPHGIRQLANYVHSKGLKLGIYADVGNKTCAGFPGSFGYYDIDAQTFADWGVDLLKFDGCYTDSLENLADGYKHMSLALNRTGRSIVYSCEWPLYMWPFQKPNYTEIRQYCNHWRNFADIDDSWASIKSILDWTSFNQERIVDVAGPGGWNDPDMLVIGNFGLSWNQQVTQMALWAIMAAPLFMSNDLRHISPQAKALLQDKDVIAINQDPLGKQGYQLRQGDNFEVWERPLSGLAWAVAMINRQEIGGPRSYTIAVASLGKGVACNPACFITQLLPVKRKLGFYEWTSRLRSHINPTGTVLLQLENTMQMSKDLLL
modifications: Synthetic Polypeptide sequence of Variant No. 201 of mature Human GLA
[1]
  Relative Activity of GLA Variants After Challenge at pH 7.6: + (+ = 0.5 to 1.5 relative activity over Rd2BB (SEQ ID NO: 10))
[2]
  Relative Activity of GLA Variants After No Challenge (NC): + (+ = 0.5 to 1.5 relative activity over Rd2BB (SEQ ID NO: 10))
[3]
  Relative Activity of GLA Variants After Challenge at pH 4.2: + (+ = 0.5 to 1.5 relative activity over Rd2BB (SEQ ID NO: 10))

B2: 204 (protein)
chain: LDNGLARTPTMGWLHWERFMCNLDCQEEPDSCISEKLFMEMAELMVSEGWKDAGYEYLCIDDCWMAPQRDSEGRLQADPQRFPHGIRQLANYVHSKGLKLGIYADVGNKTCAGFPGSFGYYDIDAQTFADWGVDLLKFDGCYCDSLENLADGYKHMSLALNRTGRSIVYSCEWPLYMWPFQKPNYTEIRQYCNHWRNFADIDDSWASIKSILDWTSFNQERIVDVAGPGGWNDPDMLVIGNFGLSWNQQVTQMALWAIMAAPLFMSNDLRHISPQAKALLQDKDVIAINQDPLGKQGYQLRQGDNFEVWERPLSGLAWAVAMINRQEIGGPRSYTIAVASLGKGVACNPACFITQLLPVKRKLGFYDWTSRLRSHINPTGTVLLQLENTMQMSKDLLL
modifications: Synthetic Polypeptide sequence of Variant No. 204 of mature Human GLA
[1]
  Relative Activity of GLA Variants After Challenge at pH 7.6: + (+ = 0.5 to 1.5 relative activity over Rd2BB (SEQ ID NO: 10))
[2]
  Relative Activity of GLA Variants After No Challenge (NC): + (+ = 0.5 to 1.5 relative activity over Rd2BB (SEQ ID NO: 10))
[3]
  Relative Activity of GLA Variants After Challenge at pH 4.2: + (+ = 0.5 to 1.5 relative activity over Rd2BB (SEQ ID NO: 10))

B3: 205 (protein)
chain: LDNGLARTPTMGWLHWERFMCNLDCQEEPDSCISEKLFMEMAELMVSEGWKDAGYEYLCIDDCWMAPQRDSEGRLQADPQRFPHGIRQLANYVHSKGLKLGIYADVGNKTCAGFPGSFGYYDIDAQTFADWGVDLLKFDGCYCDSLENLADGYKHMSLALNRTGRSIVYSCEWPLYMWPFQKPNYTEIRQYCNHWRNFADIDDSWASIKSILDWTSFNQERIVDVAGPGGWNDPDMLVIGNFGLSWNQQVTQMALWAIMAAPLFMSNDLRHISPQAKALLQDKDVIAINQDPLGKQGYQLRQGDNFEVWERPLSGLAWAVAMINRQEIGGPRSYTIAVASLGKGVACNPACFITQLLPVKRKLGFYDWDSRLRSHINPTGTVLLQLENTMQMSLKDLL
modifications: Synthetic Polypeptide sequence of Variant No. 205
[1]
  Relative Activity of GLA Variants After Challenge at pH 7.6: ++ (++ = 1.5 to 2.5 relative activity over Rd2BB (SEQ ID NO: 10))
[2]
  Relative Activity of GLA Variants After No Challenge (NC): ++ (++ = 1.5 to 2.5 relative activity over Rd2BB (SEQ ID NO: 10))
[3]
  Relative Activity of GLA Variants After Challenge at pH 4.2: ++ (++ = 1.5 to 2.5 relative activity over Rd2BB (SEQ ID NO: 10))

B4: 207 (protein)
chain: LDNGLARTPTMGWLHWERFMCNLDCQEEPDSCISEKLFMEMAELMVSEGWKDAGYEYLCIDDCWMAPQRDSEGRLQADPQRFPHGIRQLANYVHSKGLKLGIYADVGNKTCAGFPGSFGYYDIDAQTFADWGVDLLKFDGCYCDSLENLADGYKHMSLALNRTGRSIVYSCEWPLYMWPFQKPNYTEIRQYCNHWRNFADIDDSWASIKSILDWTSFNQERIVDVAGPGGWNDPDMLVIGNFGLSWNQQVTQMALWAIMAAPLFMSNDLRHISPQAKALLQDKDVIAINQDPLGKQGYQLRQGDNFEVWERPLSGLAWAVAMINRQEIGGPRSYTIAVASLGKGVACNPACFITQLLPVKRKLGFYNWTSRLKSHINPTGTVLLQLENTMQMSKDLLL
modifications: Synthetic Polypeptide sequence of Variant No. 207 of mature Human GLA
[1]
  Relative Activity of GLA Variants After Challenge at pH 7.6: +++ (+++ = >2.5 relative activity over Rd2BB (SEQ ID NO: 10))
[2]
  Relative Activity of GLA Variants After No Challenge (NC): ++ (++ = 1.5 to 2.5 relative activity over Rd2BB (SEQ ID NO: 10))
[3]
  Relative Activity of GLA Variants After Challenge at pH 4.2: +++ (+++ = >2.5 relative activity over Rd2BB (SEQ ID NO: 10))

B5: 208 (protein)
chain: LDNGLARTPTMGWLHWERFMCNLDCQEEPDSCISEKLFMEMAELMVSEGWKDAGYEYLCIDDCWMAPQRDSEGRLQADPQRFPHGIRQLANYVHSKGLKLGIYADVGNKTCAGFPGSFGYYDIDAQTFADWGVDLLKFDGCYCDSLENLADGYKHMSLALNRTGRSIVYSCEWPLYMWPFQKPNYTEIRQYCNHWRNFADIDDSWASIKSILDWTSFNQERIVDVAGPGGWNDPDMLVIGNFGLSWNQQVTQMALWAIMAAPLFMSNDLRHISPQAKALLQDKDVIAINQDPLGKQGYQLRQGDNFEVWERPLSGLAWAVAMINRQEIGGPRSYTIAVASLGKGVACNPACFITQLLPVKRKLGFYNWTSRLKSHVNPTGTVLLQLENTMQMSKDLLL
modifications: Synthetic Polypeptide sequence of Variant No. 208 of mature Human GLA
[1]
  Relative Activity of GLA Variants After Challenge at pH 7.6: +++ (+++ = >2.5 relative activity over Rd2BB (SEQ ID NO: 10))
[2]
  Relative Activity of GLA Variants After No Challenge (NC): ++ (++ = 1.5 to 2.5 relative activity over Rd2BB (SEQ ID NO: 10))
[3]
  Relative Activity of GLA Variants After Challenge at pH 4.2: +++ (+++ = >2.5 relative activity over Rd2BB (SEQ ID NO: 10))

B6: 206 (protein)
chain: LDNGLARTPTMGWLHWERFMCNLDCQEEPDSCISEKLFMEMAELMVSEGWKDAGYEYLCIDDCWMAPQRDSEGRLQADPQRFPHGIRQLANYVHSKGLKLGIYADVGNKTCAGFPGSFGYYDIDAQTFADWGVDLLKFDGCYCDSLENLADGYKHMSLALNRTGRSIVYSCEWPLYMWPFQKPNYTEIRQYCNHWRNFADIDDSWASIKSILDWTSFNQERIVDVAGPGGWNDPDMLVIGNFGLSWNQQVTQMALWAIMAAPLFMSNDLRHISPQAKALLQDKDVIAINQDPLGKQGYQLRQGDNFEVWERPLSGLAWAVAMINRQEIGGPRSYTIAVASLGKGVACNPACFITQLLPVKRKLGFYNWTSRLRSHINPTGTVLLQLENTMQMSLKDLL
modifications: Synthetic Polypeptide sequence of Variant No. 206
[1]
  Relative Activity of GLA Variants After Challenge at pH 7.6: +++ (+++ = >2.5 relative activity over Rd2BB (SEQ ID NO: 10))
[2]
  Relative Activity of GLA Variants After No Challenge (NC): +++ (+++ = >2.5 relative activity over Rd2BB (SEQ ID NO: 10))
[3]
  Relative Activity of GLA Variants After Challenge at pH 4.2: +++ (+++ = >2.5 relative activity over Rd2BB (SEQ ID NO: 10))

B7: 203 (protein)
chain: LDNGLARTPTMGWLHWERFMCNLDCQEEPDSCISEKLFMEMAELMVSEGWKDAGYEYLCIDDCWMAPQRDSEGRLQADPQRFPHGIRQLANYVHSKGLKLGIYADVGNKTCAGFPGSFGYYDIDAQTFADWGVDLLKFDGCYCDSLENLADGYKHMSLALNRTGRSIVYSCEWPLYMWPFQKPNYTEIRQYCNHWRNFADIDDSWASIKSILDWTSFNQERIVDVAGPGGWNDPDMLVIGNFGLSWNQQVTQMALWAIMAAPLFMSNDLRHISPQAKALLQDKDVIAINQDPLGKQGYQLRQGDNFEVWERPLSGLAWAVAMINRQEIGGPRSYTIAVASLGKGVACNPACFITQLLPVKRKLGFYAWDSRLRSHINPTGTVLLQLENTMQMSKDLLL
modifications: Synthetic Polypeptide sequence of Variant No. 203 of mature Human GLA
[1]
  Relative Activity of GLA Variants After Challenge at pH 7.6: +++ (+++ = >2.5 relative activity over Rd2BB (SEQ ID NO: 10))
[2]
  Relative Activity of GLA Variants After No Challenge (NC): ++ (++ = 1.5 to 2.5 relative activity over Rd2BB (SEQ ID NO: 10))
[3]
  Relative Activity of GLA Variants After Challenge at pH 4.2: ++ (++ = 1.5 to 2.5 relative activity over Rd2BB (SEQ ID NO: 10))

B8: 202 (protein)
chain: LDNGLARTPTMGWLHWERFMCNLDCQEEPDSCISEKLFMEMAELMVSEGWKDAGYEYLAIDDCWMAPQRDSEGRLQADPQRFPHGIRQLANYVHSKGLKLGIYADVGNKTCAGFPGSFGYYDIDAQTFADWGVDLLKFDGCYCDSLENLADGYKHMSLALNRTGRSIVYSCEWPLYMWPFQKPNYTEIRQYCNHWRNFADIDDSWASIKSILDWTSFNQERIVDVAGPGGWNDPDMLVIGNFGLSWNQQVTQMALWAIMAAPLFMSNDLRHISPQAKALLQDKDVIAINQDPLGKQGYQLRQGDNFEVWERPLSGLAWAVAMINRQEIGGPRSYTIAVASLGKGVACNPACFITQLLPVKRKLGFYEWTSRLRSHINPTGTVLLQLENTMQMSKDLLL
modifications: Synthetic Polypeptide sequence of Variant No. 202 of mature Human GLA
[1]
  Relative Activity of GLA Variants After Challenge at pH 7.6: + (+ = 0.5 to 1.5 relative activity over Rd2BB (SEQ ID NO: 10))
[2]
  Relative Activity of GLA Variants After No Challenge (NC): + (+ = 0.5 to 1.5 relative activity over Rd2BB (SEQ ID NO: 10))
[3]
  Relative Activity of GLA Variants After Challenge at pH 4.2: + (+ = 0.5 to 1.5 relative activity over Rd2BB (SEQ ID NO: 10))
